Publication PMC3746069 (FEBS letters, 2013)

T1: Outer arm dynein intermediate chain 1 with N-terminal 6xHis (His-IC1) (Chlamydomonas reinhardtii, UniProt Q39578 1-683)
T1 sequence (looked up): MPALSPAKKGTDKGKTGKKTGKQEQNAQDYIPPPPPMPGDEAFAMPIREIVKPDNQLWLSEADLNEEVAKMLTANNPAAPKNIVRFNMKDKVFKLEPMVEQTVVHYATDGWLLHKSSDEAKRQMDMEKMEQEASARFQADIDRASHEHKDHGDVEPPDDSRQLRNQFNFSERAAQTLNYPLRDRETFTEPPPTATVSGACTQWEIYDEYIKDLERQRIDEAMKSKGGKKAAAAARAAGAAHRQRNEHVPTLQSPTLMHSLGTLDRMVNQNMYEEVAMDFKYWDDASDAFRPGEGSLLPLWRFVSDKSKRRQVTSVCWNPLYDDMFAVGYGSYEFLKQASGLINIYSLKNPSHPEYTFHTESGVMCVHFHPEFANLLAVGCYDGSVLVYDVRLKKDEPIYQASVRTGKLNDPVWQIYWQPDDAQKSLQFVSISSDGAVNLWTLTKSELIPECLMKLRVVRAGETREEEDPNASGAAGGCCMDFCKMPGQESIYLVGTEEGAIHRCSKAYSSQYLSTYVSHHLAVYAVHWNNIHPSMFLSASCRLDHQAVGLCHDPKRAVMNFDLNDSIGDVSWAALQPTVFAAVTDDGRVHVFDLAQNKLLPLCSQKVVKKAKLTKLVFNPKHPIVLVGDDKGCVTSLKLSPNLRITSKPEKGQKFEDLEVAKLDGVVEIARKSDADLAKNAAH

T2: Outer dynein arm docking complex subunit DC2 with C-terminal 6xHis (DC2-6xHis) (Chlamydomonas reinhardtii, UniProt A8JF70 1-552)
T2 sequence (looked up): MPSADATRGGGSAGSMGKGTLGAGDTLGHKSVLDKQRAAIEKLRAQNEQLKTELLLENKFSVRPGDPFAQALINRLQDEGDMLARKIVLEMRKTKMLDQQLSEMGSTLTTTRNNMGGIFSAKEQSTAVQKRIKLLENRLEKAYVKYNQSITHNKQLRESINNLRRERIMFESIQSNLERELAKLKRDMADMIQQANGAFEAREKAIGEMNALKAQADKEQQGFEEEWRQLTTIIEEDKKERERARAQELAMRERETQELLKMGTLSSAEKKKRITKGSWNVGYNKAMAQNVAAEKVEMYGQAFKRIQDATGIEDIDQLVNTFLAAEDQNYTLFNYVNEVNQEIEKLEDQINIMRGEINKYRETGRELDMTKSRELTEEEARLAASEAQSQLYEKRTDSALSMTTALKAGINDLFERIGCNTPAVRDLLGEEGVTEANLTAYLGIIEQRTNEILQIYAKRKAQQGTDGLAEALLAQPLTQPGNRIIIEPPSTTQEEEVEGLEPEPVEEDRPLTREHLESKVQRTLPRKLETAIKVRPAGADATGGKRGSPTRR

B1: Outer arm dynein intermediate chain 1 (IC1), not tagged (natural protein, Chlamydomonas reinhardtii, UniProt Q39578 1-683, looked up)
chain: T1 sequence (looked up)
B2: Outer arm dynein intermediate chain 2 with C-terminal 6xHis (IC2-6xHis) (natural protein, Chlamydomonas reinhardtii, UniProt P27766 1-567, looked up)
chain: MEIYHQYIKLRKQFGRFPKFGDEGSEMLADIRPNEDHGKEYIPRNPVTTVTQCVPEMSEHEANTNAVILVNKAMSHVEGGWPKDVDYTEAEHTIRYRKKVEKDEDYIRTVVQLGSSVEDLIKQNNAVDIYQEYFTNVTMDHTSEAPHVKTVTVFKDPNNIKRSASYVNWHPDGSVPKVVVAYSILQFQQQPAGMPLSSYIWDVNNPNTPEYEMVPTSQICCAKFNLKDNNLVGAGQYNGQLAYFDVRKGNGPVEATPIDISHRDPIYDFAWLQSKTGTECMTVSTDGNVLWWDLRKMNECVENMPLKEKNSETTVGGVCLEYDTNAGPTNFMVGTEQGQIFSCNRKAKNPVDRVKYVLSGHHGPIYGLRRNPFNSKYFLSIGDWTARVWVEDTAVKTPILTTKYHPTYLTGGTWSPSRPGVFFTIKMDGAMDVWDLYYKHNEPTLTVQVSDLALTAFAVQESGGTVAVGTSDGCTSVLQLSTGLSEASPAEKANINAMFERETTREKNLEKAIKEAKVKARKEQGRRDEVKDNVTEEQLKALEDEFFKTTDPAVGGGYGAGEGAAAE
B3: Outer dynein arm docking complex subunit DC1, not tagged (natural protein)
chain: not shown

How the values were obtained:
[1] = biological target: B2; experiment: pull-down
[2] = biological target: T1, Outer arm dynein intermediate chain 1 …; experiment: co-IP
[3] = biological target: T2, Outer dynein arm docking complex …; experiment: pull-down

Binder: B1
- stoichiometry N [1]: 1 IC1:IC2

Binder: B2
- binding result [2]: binds

Binder: B3
- stoichiometry N [3]: 1 DC1:DC2
